Reference: patent US20250163404A1, “PHAGE DISPLAY-BASED CELL-PENETRATING PEPTIDE DISCOVERY PLATFORM AND METHODS OF MAKING AND USING THE SAME” (Eli Lilly and Company, priority 2022, published 2025)

Columns and labels:
[1] = test system: HEK293 lysosome (lysosomal cathepsins); assay: Phage infectivity after incubation with HEK293 lysosomal extract; format: biochemical; details: 30 min. incubation at 37° C., n=3
Description: (§1) Subcellular fractionation: cytosolic and endosomal extraction are prepared according to manufactures' protocols from ThermoFisher Scientific (Cat. No. 89842) and Invent Biotechnologies (Cat. No. #ED-028), respectively. The starting cell number is 5×10^6 cells for one cytosolic extraction, and 3×10^7 cells for one endosome extraction. Lysosomal isolation from different cell types are optimized based on an Abcam kit (Cat. No. ab234047) for homogenization step and increased isolation scale. The starting cell number for one lysosomal isolation is 2×10^8 cells.
(§2) Ten rounds of overnight phage culture described above are grown to evaluate substrate sequence retention for each phage clone. Sanger sequencing is performed after each round of phage culture to confirm the substrate insertion. Final phage clones with the substrate insertion are then evaluated for cathepsin accessibility by incubation with lysosomal extract from different mammalian cell lines.
(§3) The accessibility of clone A1 and H4 to active cathepsins is further assessed in lysosomal extracts from CaCo2 and HEK293 cells in addition to CHO cells. […] (see, FIG. 3). CaCo2 lysosome: clone A1 (mean=79.83%, SEM=9.5%) vs. H4 (mean=34.63%, SEM=13.5%), p=0.22, n=3. HEK293 lysosome: clone A1 (mean=75.1%, SEM=9.7%) vs. H4 (mean=9.5%, SEM=1.6%), p=0.018, n=3. […]

[2] = test system: CaCo2 lysosome (lysosomal cathepsins); assay: Phage infectivity after incubation with CaCo2 lysosomal extract; format: biochemical; details: 30 min. incubation at 37° C., n=3
Description: as §1, §2, §3

[3] = test system: CHO cell lysosomal extracts (active cathepsins); assay: Phage infectivity after incubation with CHO cell lysosomal extract; format: biochemical, Chinese hamster
Description: as §1, §2
The accessibility of the engineered GS2 linker of the 18 phage clones to active cathepsins (confirmed by fluorogenic cleaving assay) is assessed by incubating phage clones with CHO cell lysosomal extracts at 37° C. The assessment is repeated 4 times with independently isolated lysosome under acidic environment (about pH 5). […] (as shown in the representative graph in FIG. 2).
The accessibility of clone A1 and H4 to active cathepsins is further assessed in lysosomal extracts from CaCo2 and HEK293 cells in addition to CHO cells. […] (see, FIG. 3). CaCo2 lysosome: clone A1 (mean=79.83%, SEM=9.5%) vs. H4 (mean=34.63%, SEM=13.5%), p=0.22, n=3. HEK293 lysosome: clone A1 (mean=75.1%, SEM=9.7%) vs. H4 (mean=9.5%, SEM=1.6%), p=0.018, n=3. CHO lysosome: clone A1 (mean=95.58%, SEM=13.8%) vs. H4 (mean=2.738%, SEM=0.8%), p<0.0001, n=6.

B1: H4: engineered M13 IX104 phage clone with FLVIR cathepsin substrate copies in pIII GS2 linker (nucleic acid)
DNA: GCTGAAACTGTTGAAAGTTGTTTAGCAAAATCCCATACAGAAAATTCATTTACTAACGTCTGGAAAGACGACAAAACTTTAGATCGTTACGCTAACTATGAGGGCTGTCTGTGGAATGCTACAGGCGTTGTAGTTTGTACTGGTGACGAAACTCAGTGTTACGGTACATGGGTTCCTATTGGGCTTGCTATCCCTGAAAATGAGGGTGGTGGCTCTGAGGGTGGCGGTTCTGAGGGTGGCGGTTCTGAGGGTGGCGGTACTAAACCTCCTGAGTACGGTGATACACCTATTCCGGGCTATACTTATATCAACCCTCTCGACGGCACTTATCCGCCTGGTACTGAGCAAAACCCCGCTAATCCTAATCCTTCTCTTGAGGAGTCTCAGCCTCTTAATACTTTCATGTTTCAGAATAATAGGTTCCGAAATAGGCAGGGGGCATTAACTGTTTATACGGGCACTGTTACTCAAGGCACTGACCCCGTTAAAACTTATTACCAGTACACTCCTGTATCATCAAAAGCCATGTATGACGCTTACTGGAACGGTAAATTCAGAGACTGCGCTTTCCATTCTGGCTTTAATGAGGATTTATTTGTTTGTGAATATCAAGGCCAATCGTCTGACCTGCCTCAACCTCCTGTCAATGCTGGCGGCGGCTCTTTTTTAGTTATTAGAGGTGGTGGTTCTGGTGGCGGCTCTGAGGGTGGTGGCTCTGAGTTTTTAGTTATTAGAGGTGGCGGTTCTGAGGGTGGCGGCTCTGAGGGAGGCGGTTCCGGTGGTGGCTCTGGTTCCGGTGATTTTGATTATGAAAAGATGGCAAACGCTAATAAGGGGGCTATGACCGAAAATGCCGATGAAAACGCGCTACAGTCTGACGCTAAAGGCAAACTTGATTCTGTCGCTACTGATTACGGTGCTGCTATCGATGGTTTCATTGGTGACGTTTCCGGCCTTGCTAATGGTAATGGTGCTACTGGTGATTTTGCTGGCTCTAATTCCCAAATGGCTCAAGTCGGTGACGGTGATAATTCACCTTTAATGAATAATTTCCGTCAATATTTACCTTCCCTCCCTCAATCGGTTGAATGTCGCCCTTTTGTCTTTAGCGCTGGTAAACCATATGAATTTTCTATTGATTGTGACAAAATAAACTTATTCCGTGGTGTCTTTGCGTTTCTTTTATATGTTGCCACCTTTATGTATGTATTTTCTACGTTTGCTAACATACTGCGTAATAAGGAGTCT
In the case of B1, the “infectivity (mean)” value [1] is reported as 9.5%, the “infectivity (mean)” value [2] is reported as 34.63% and the infectivity reduction ([3]; CHO lysosomal extract, 37° C., about pH 5) is reported as 9800. For the same molecule, the “infectivity (mean)” value ([3]; CHO lysosomal extract, 37° C., about pH 5, n=4) was 2% and the “infectivity (mean)” value ([3]; CHO lysosome, 30 min. incubation at 37° C., n=6) was 2.738%.
